Laboratory results from the Human Domainome abundance scans (Beltran et al. 2025).
± gives the uncertainty stated by the source.

B1: Heterogeneous nuclear ribonucleoprotein U-like protein 2, residues 1 to 40; numbered along this chain, Q1KMD3 (parent)
chain: MEVKRLKVTELRSELQRRGLDSRGLKVDLAQRLQEALDAE

Variants of: B1
Assay: abundance fitness (aPCA) (normalised: wild type 0, dead -1); higher = more abundant; growth selection in yeast, the domain comes from the species named
Settings: Homo sapiens

| Variant | abundance fitness |
| --- | --- |
| G19A | -0.369 ± 0.051 |
| G19K | -0.545 ± 0.22 |
| G19P | -0.555 ± 0.062 |
| G19Y | -1.04 ± 0.19 |
| G19D | -0.006 ± 0.12 |
| G19Q | -0.178 ± 0.074 |
| G19E | -0.396 ± 0.084 |
| G19M | -0.676 ± 0.15 |
| G19V | -0.789 ± 0.063 |
| G19C | -0.379 ± 0.11 |
| G19T | -0.521 ± 0.07 |
| G19R | -0.444 ± 0.052 |
| G19L | -0.64 ± 0.061 |
| G19S | -0.276 ± 0.061 |
| G19H | -0.196 ± 0.084 |
| R17N | -0.77 ± 0.44 |
| R17P | -0.432 ± 0.085 |
| R17S | -0.092 ± 0.058 |
| R17G | -0.252 ± 0.056 |
| R17W | -0.521 ± 0.063 |
| R17M | 0.006 ± 0.058 |
| R17L | -0.129 ± 0.054 |
| R17A | 0.053 ± 0.053 |
| R17E | -0.121 ± 0.062 |

| Variant | abundance fitness |
| --- | --- |
| R17D | -0.218 ± 0.12 |
| R17Y | -0.455 ± 0.099 |
| R17V | -0.219 ± 0.053 |
| R17T | -0.184 ± 0.07 |
| R17C | -0.282 ± 0.083 |
| R17H | -0.276 ± 0.15 |
| R17Q | 0.008 ± 0.069 |
| R17K | 0.112 ± 0.06 |
| R17I | -0.173 ± 0.095 |
| K26W | -0.146 ± 0.058 |
| K26G | -0.178 ± 0.051 |
| K26E | 0.107 ± 0.06 |
| K26P | -0.002 ± 0.069 |
| K26A | -0.066 ± 0.056 |
| K26T | -0.154 ± 0.082 |
| K26Y | -0.103 ± 0.15 |
| K26R | -0.074 ± 0.051 |
| K26I | -0.117 ± 0.089 |
| K26L | -0.179 ± 0.053 |
| K26Q | 0.008 ± 0.095 |
| K26V | -0.149 ± 0.056 |
| K26M | -0.048 ± 0.072 |
| K26D | -0.019 ± 0.09 |
| K26S | -0.189 ± 0.073 |

| Variant | abundance fitness |
| --- | --- |
| K26F | -0.361 ± 0.088 |
| A30T | -0.058 ± 0.077 |
| A30N | -0.422 ± 0.4 |
| A30L | -0.21 ± 0.074 |
| A30W | -0.236 ± 0.056 |
| A30G | -0.361 ± 0.063 |
| A30F | -0.217 ± 0.13 |
| A30V | 0.011 ± 0.059 |
| A30D | -0.217 ± 0.083 |
| A30Q | 0.106 ± 0.09 |
| A30P | -0.718 ± 0.15 |
| A30C | -0.006 ± 0.071 |
| A30S | -0.165 ± 0.069 |
| A30R | 0.046 ± 0.051 |
| R18L | -0.228 ± 0.063 |
| R18M | -0.215 ± 0.079 |
| R18F | -0.685 ± 0.13 |
| R18Y | -0.652 ± 0.1 |
| R18T | -0.627 ± 0.09 |
| R18K | -0.356 ± 0.088 |
| R18G | -0.481 ± 0.052 |
| R18C | -0.668 ± 0.092 |
| R18I | -0.721 ± 0.32 |
| R18W | -1.08 ± 0.084 |

| Variant | abundance fitness |
| --- | --- |
| R18A | -0.699 ± 0.066 |
| R18H | -0.726 ± 0.086 |
| R18P | -0.436 ± 0.097 |
| R18E | -0.571 ± 0.062 |
| R18S | -0.615 ± 0.067 |
| R18Q | -0.614 ± 0.099 |
| L25W | -0.248 ± 0.068 |
| L25A | 0.189 ± 0.054 |
| L25S | 0.118 ± 0.059 |
| L25D | 0.151 ± 0.072 |
| L25C | 0.019 ± 0.067 |
| L25Q | 0.046 ± 0.06 |
| L25H | 0.105 ± 0.088 |
| L25V | 0.066 ± 0.049 |
| L25I | -0.095 ± 0.081 |
| L25T | 0.155 ± 0.081 |
| L25E | 0.257 ± 0.059 |
| L25G | 0.095 ± 0.046 |
| L25M | -0.096 ± 0.084 |
| L25Y | -0.025 ± 0.11 |
| S22V | 0.079 ± 0.059 |
| S22K | -0.333 ± 0.079 |
| S22P | 0.12 ± 0.085 |
| S22Q | 0 ± 0.064 |

| Variant | abundance fitness |
| --- | --- |
| S22T | 0.142 ± 0.07 |
| S22F | 0.176 ± 0.28 |
| S22R | -0.402 ± 0.055 |
| S22M | -0.064 ± 0.1 |
| S22A | 0.063 ± 0.054 |
| S22W | -0.011 ± 0.072 |
| S22L | -0.153 ± 0.065 |
| S22H | 0.08 ± 0.12 |
| S22G | -0.052 ± 0.053 |
| S22E | -0.02 ± 0.056 |
| S22C | -0.08 ± 0.1 |
| D28L | -0.497 ± 0.055 |
| D28A | -0.09 ± 0.052 |
| D28Q | -0.139 ± 0.066 |
| D28S | -0.407 ± 0.065 |
| D28V | -0.119 ± 0.057 |
| D28Y | -0.715 ± 0.17 |
| D28M | -0.382 ± 0.13 |
| D28G | -0.513 ± 0.061 |
| D28W | -1.35 ± 0.11 |
| D28K | -0.129 ± 0.073 |
| D28H | -0.19 ± 0.085 |
| D28N | -0.248 ± 0.1 |
| D28I | -0.326 ± 0.17 |

| Variant | abundance fitness |
| --- | --- |
| D28P | -0.681 ± 0.1 |
| D28E | 0.086 ± 0.063 |
| D28R | -0.342 ± 0.058 |
| D28F | -0.896 ± 0.12 |
| G24R | -1.03 ± 0.051 |
| G24C | -0.773 ± 0.079 |
| G24P | -0.578 ± 0.072 |
| G24S | -0.703 ± 0.072 |
| G24Q | -0.612 ± 0.14 |
| G24K | -0.945 ± 0.12 |
| G24A | -0.832 ± 0.077 |
| G24T | -0.837 ± 0.074 |
| G24L | -0.984 ± 0.076 |
| G24M | -0.81 ± 0.082 |
| G24W | -1.47 ± 0.08 |
| G24V | -0.855 ± 0.057 |
| G24Y | -1.1 ± 0.17 |
| E14G | -0.743 ± 0.054 |
| E14C | -0.489 ± 0.069 |
| E14R | -0.752 ± 0.051 |
| E14I | -0.551 ± 0.1 |
| E14V | -0.845 ± 0.061 |
| E14H | -0.512 ± 0.11 |
| E14A | -0.34 ± 0.053 |

| Variant | abundance fitness |
| --- | --- |
| E14T | -0.869 ± 0.077 |
| E14Y | -0.634 ± 0.088 |
| E14D | -0.635 ± 0.075 |
| E14W | -0.942 ± 0.09 |
| E14M | -0.274 ± 0.081 |
| E14K | -0.782 ± 0.08 |
| E14S | -0.6 ± 0.075 |
| E14P | -0.953 ± 0.11 |
| E14F | -0.752 ± 0.14 |
| E14L | -0.311 ± 0.058 |
| R12P | -0.751 ± 0.081 |
| R12V | -0.112 ± 0.06 |
| R12A | -0.212 ± 0.053 |
| R12G | -0.507 ± 0.052 |
| R12D | -0.403 ± 0.073 |
| R12E | -0.147 ± 0.058 |
| R12S | -0.332 ± 0.065 |
| R12W | -0.845 ± 0.066 |
| R12T | -0.165 ± 0.065 |
| R12Q | 0.036 ± 0.07 |
| R12L | -0.495 ± 0.06 |
| R12H | -0.339 ± 0.15 |
| R12F | -0.574 ± 0.12 |
